B1: RUNX3-WT duplex (dsDNA)
DNA 1: CCGGGCGCCGCCCCCTGCGCCCTGAGGCCC
DNA 2: GGGCCTCAGGGCGCAGGGGGCGGCGCCCGG
B2: SPI1-WT duplex (dsDNA)
DNA 1: AAGGGGACTATCTCCCAGCGGCAGGCCCTT
DNA 2: AAGGGCCTGCCGCTGGGAGATAGTCCCCTT
B3: GATA1-WT duplex (dsDNA)
DNA 1: ACACACCTGTAGTCCCAGCTACTCAGGAGG
DNA 2: CCTCCTGAGTAGCTGGGACTACAGGTGTGT
B4: GATA2-WT duplex (dsDNA)
DNA 1: CTTGGGCTTTCCTCCCACCCGGGACTGGTG
DNA 2: CACCAGTCCCGGGTGGGAGGAAAGCCCAAG

Biological target: RIOK2 (rhRIOK2, full length) (Homo sapiens, UniProt Q9BVS4 SEQ:1-552)
Test: EMSA; low-salt buffer, 4 C, protein:DNA 5:1
Conditions: tags: GST; Abcam
Procedure: Recombinant human GST-tagged RIOK2 (rhRIOK2, Abcam) was incubated with duplex DNA (Table 5) at 5:1 molar ratio in a low-salt buffer for 20-30 minutes at 4° C. and 2% agarose gel was cast and cooled to 4° C. The DNA-protein mixture was supplemented with 0.22p filtered 50% glycerol solution to facilitate loading. The gel was run for 1.5 hours at 4° C., followed by incubation in ethidium bromide solution for 30 minutes and visualized using ChemiDoc Touch Imaging system (Bio-Rad). ImageJ was used to quantify band shifts.

RIOK2 (rhRIOK2, full length), sequence (Q9BVS4 whole entry): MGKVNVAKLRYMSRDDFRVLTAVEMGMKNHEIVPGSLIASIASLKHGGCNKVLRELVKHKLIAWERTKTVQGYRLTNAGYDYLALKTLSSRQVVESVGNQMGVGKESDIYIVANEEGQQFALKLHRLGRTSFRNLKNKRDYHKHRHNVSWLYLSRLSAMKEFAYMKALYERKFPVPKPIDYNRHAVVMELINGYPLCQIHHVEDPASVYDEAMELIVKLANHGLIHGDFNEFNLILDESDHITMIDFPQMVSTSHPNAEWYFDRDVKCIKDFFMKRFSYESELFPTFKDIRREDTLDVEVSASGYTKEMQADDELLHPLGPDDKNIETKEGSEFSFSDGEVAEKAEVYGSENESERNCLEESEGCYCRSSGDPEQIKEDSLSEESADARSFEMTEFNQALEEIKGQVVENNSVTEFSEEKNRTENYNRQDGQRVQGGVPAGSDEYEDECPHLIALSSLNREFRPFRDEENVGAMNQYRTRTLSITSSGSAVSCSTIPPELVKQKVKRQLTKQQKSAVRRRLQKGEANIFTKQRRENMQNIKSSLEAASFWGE

Does B1 bind?
Result: binds

Does B2 bind?
Result: binds

Does B3 bind?
Result: binds

Does B4 bind?
Result: binds

— patent US20250381241, “METHODS AND COMPOSITIONS TO MODULATE RIOK2” (Dana-Farber Cancer Institute, Inc., published 2025)
